Measurements reported in PMC9130890 (Advanced Science, 2022).

How the values were obtained:
HIV-1 BG505 Env trimer = HIV-1 BG505 Env trimer (HIV-1 (strain BG505), UniProt Q2N0S6)
[1] = molecular target: HIV-1 C1080 Env trimer, stabilized in the prefusion-closed state (HIV-1 (CRF01_AE strain C1080))

B1: J038 (antibody, V domains shown)
VH: QLHLQESGPGLVRPSETLSLTCDVSGGAFNDAYCSWIRRFPGGGLEWIGRISGRDGYVESNPALTGRVTMSIDATWKKIVLRLTSMTASDTATYFCAGETPEDDFGYYQPYFKTWGQGLGVTVSS
VL: DIQLIQSPSSVSASLGDRVTITCRSTQGIGSDLAWYQATPGTAPKLLIYNSFALHKGVPSRFSGSGSGTEFSLTITGLQPEDFATYYCQHYRRLPLTFGGGTNIEVK
HIV-1 BG505 Env trimer
  binding result: binds
[1]
  binding result: binds
